{"source": "the Immune Epitope Database (IEDB)", "key": {"[1]": {"biological_target": "HLA-B*15:02", "experiment": "IEDB peptide-MHC binding, purified MHC/direct/fluorescence; filed as Kd, often an IC50 or EC50 that approximates it; ≥ and ≤ were set here for values at or beyond the usual limits of such assays", "conditions": "source organism: dengue virus type 1"}, "[2]": {"biological_target": "HLA-B*46:01", "experiment": "IEDB peptide-MHC binding, purified MHC/direct/fluorescence; filed as Kd, often an IC50 or EC50 that approximates it; ≥ and ≤ were set here for values at or beyond the usual limits of such assays", "conditions": "source organism: Dengue virus"}, "[3]": {"biological_target": "HLA-A*30:02", "experiment": "IEDB peptide-MHC binding, purified MHC/competitive/radioactivity; filed as Kd, often an IC50 or EC50 that approximates it; ≥ and ≤ were set here for values at or beyond the usual limits of such assays", "conditions": "source organism: Dengue virus 1 Brazil/97-11/1997"}, "[4]": {"biological_target": "HLA-C*15:02", "experiment": "IEDB peptide-MHC binding, purified MHC/direct/fluorescence; filed as Kd, often an IC50 or EC50 that approximates it; ≥ and ≤ were set here for values at or beyond the usual limits of such assays", "conditions": "source organism: Bacillus anthracis str. A0488"}, "[5]": {"biological_target": "HLA-A*03:19", "experiment": "IEDB peptide-MHC binding, purified MHC/competitive/fluorescence; filed as Kd, often an IC50 or EC50 that approximates it; ≥ and ≤ were set here for values at or beyond the usual limits of such assays", "conditions": "source organism: Bacillus anthracis str. A0488"}, "[6]": {"biological_target": "HLA-A*24:03", "experiment": "IEDB peptide-MHC binding, purified MHC/competitive/fluorescence; filed as Kd, often an IC50 or EC50 that approximates it; ≥ and ≤ were set here for values at or beyond the usual limits of such assays", "conditions": "source organism: Bacillus anthracis str. A0488"}, "[7]": {"biological_target": "HLA-A*32:07", "experiment": "IEDB peptide-MHC binding, purified MHC/competitive/fluorescence; filed as Kd, often an IC50 or EC50 that approximates it; ≥ and ≤ were set here for values at or beyond the usual limits of such assays", "conditions": "source organism: Bacillus anthracis str. A0488"}, "[8]": {"biological_target": "HLA-B*15:42", "experiment": "IEDB peptide-MHC binding, purified MHC/competitive/fluorescence; filed as Kd, often an IC50 or EC50 that approximates it; ≥ and ≤ were set here for values at or beyond the usual limits of such assays", "conditions": "source organism: Bacillus anthracis str. A0488"}, "[9]": {"biological_target": "HLA-B*27:20", "experiment": "IEDB peptide-MHC binding, purified MHC/competitive/fluorescence; filed as Kd, often an IC50 or EC50 that approximates it; ≥ and ≤ were set here for values at or beyond the usual limits of such assays", "conditions": "source organism: Bacillus anthracis str. A0488"}, "[10]": {"biological_target": "HLA-B*40:13", "experiment": "IEDB peptide-MHC binding, purified MHC/competitive/fluorescence; filed as Kd, often an IC50 or EC50 that approximates it; ≥ and ≤ were set here for values at or beyond the usual limits of such assays", "conditions": "source organism: Bacillus anthracis str. A0488"}, "[11]": {"biological_target": "HLA-B*45:06", "experiment": "IEDB peptide-MHC binding, purified MHC/competitive/fluorescence; filed as Kd, often an IC50 or EC50 that approximates it; ≥ and ≤ were set here for values at or beyond the usual limits of such assays", "conditions": "source organism: Bacillus anthracis str. A0488"}, "[12]": {"biological_target": "HLA-B*83:01", "experiment": "IEDB peptide-MHC binding, purified MHC/competitive/fluorescence; filed as Kd, often an IC50 or EC50 that approximates it; ≥ and ≤ were set here for values at or beyond the usual limits of such assays", "conditions": "source organism: Bacillus anthracis str. A0488"}, "[13]": {"biological_target": "HLA-C*06:02", "experiment": "IEDB peptide-MHC binding, purified MHC/competitive/fluorescence; filed as Kd, often an IC50 or EC50 that approximates it; ≥ and ≤ were set here for values at or beyond the usual limits of such assays", "conditions": "source organism: Bacillus anthracis str. A0488"}}, "note": "pKd: −log10 of the molar value.", "data": [{"sequence": "KLEGKIVQY", "values": [{"measurement": "pKd", "setting": "[1]", "value": "≤ 4.70"}, {"measurement": "pKd", "setting": "[2]", "value": "≤ 4.70"}, {"measurement": "pKd", "setting": "[3]", "value": 6.08}]}, {"sequence": "RFFKHFMSL", "values": [{"measurement": "pKd", "setting": "[4]", "value": 5.80}, {"measurement": "pKd", "setting": "[5]", "value": 7.34}, {"measurement": "pKd", "setting": "[6]", "value": "≥ 10.00"}, {"measurement": "pKd", "setting": "[7]", "value": 9.40}, {"measurement": "pKd", "setting": "[8]", "value": "≤ 5.30"}, {"measurement": "pKd", "setting": "[9]", "value": 7.79}, {"measurement": "pKd", "setting": "[10]", "value": 8.28}, {"measurement": "pKd", "setting": "[11]", "value": "≤ 5.30"}, {"measurement": "pKd", "setting": "[12]", "value": "≤ 5.30"}, {"measurement": "pKd", "setting": "[13]", "value": 5.93}]}]}
